The results in this text go back to patent publication CN114106182A (ZHONGSHAN KANGFARE BIOLOGICAL MEDICINE CO LTD, dated 2022).

For assay [1], the target named is T1, human TIGIT-mFc (human; mouse, UniProt Q495A1 22-141, limits assumed).
T1 construct: Made in house (Akeso, lot 20171110); also called 人TIGIT-mFc; not shown: Fc fragment of mouse IgG (mFc)
T1 sequence (looked up): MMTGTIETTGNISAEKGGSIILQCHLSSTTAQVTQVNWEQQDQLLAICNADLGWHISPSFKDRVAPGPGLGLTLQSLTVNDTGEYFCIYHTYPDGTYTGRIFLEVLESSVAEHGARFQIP
Description: indirect ELISA screening of hybridomas on human TIGIT-mFc. (An ELISA detects its analyte on a solid surface through an enzyme-linked reagent.)

The target in assay [2] is T1, human TIGIT-mFc. The assay is described as follows: indirect ELISA, TIGIT-mFc captured by goat anti-mouse IgG Fc (Table 2 experiment).
In assay [3] the target is T1, human TIGIT-mFc. Description: competition ELISA on coated TIGIT-mFc; competitor CD155-hFc-Biotin (Table 4 experiment).
Assay [4] concerns the target T1, human TIGIT-mFc. The assay is described as follows: BLI (Fortebio), antibody on AHC sensor, TIGIT-mFc 0.62-50 nM, 1:1 fit, 37 degrees. Background: In BLI a coated tip is dipped into the sample, and binding shifts an interference pattern.
Assay [5] has as its target T2, TIGIT antigen on the surface of 293T-TIGIT cells (human, UniProt Q495A1 22-244).
T2 construct: whole, on cells; also called Jurkat-TIGIT (TIGITFL)
T2 sequence (looked up): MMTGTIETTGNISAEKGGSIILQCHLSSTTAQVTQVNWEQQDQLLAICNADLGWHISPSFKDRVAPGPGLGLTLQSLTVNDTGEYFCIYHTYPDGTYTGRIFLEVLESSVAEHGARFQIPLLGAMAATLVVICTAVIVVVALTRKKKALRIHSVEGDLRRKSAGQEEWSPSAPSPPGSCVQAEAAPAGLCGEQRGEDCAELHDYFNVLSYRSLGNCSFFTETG
Description: flow cytometry on 293T-TIGIT cells, FITC goat anti-human IgG. For orientation: A flow cytometer gives signals particle by particle.

The target in assay [6] is T2, TIGIT antigen on the surface of …. The assay is described as follows: FACS competition on 293T-TIGIT cells; competitor CD155-mG1Fc (10 nM).
Assay [7] has the same target. The assay is described as follows: FACS competition on 293T-TIGIT cells; competitor CD112-mG1Fc (30 nM).
In assay [8] the target is T1, human TIGIT-mFc. Description: indirect ELISA, TIGIT-mFc captured by goat anti-mouse IgG Fc (Table 1 experiment).
Assay [9] has as its target T1, human TIGIT-mFc. The assay is described as follows: competition ELISA on coated TIGIT-mFc; competitor CD155-hFc-Biotin (Table 3 experiment).

B1: 26B12 (antibody, V domains shown)
VH: EVQLQESGPGLVKPSQSLSLTCTVTGHSFTSDYAWNWIRQFPGNRLEWMGYISYSDSTNYNPSLKSRISITRDTSKNQFFLQMNSVTTEDTATYYCARLDYGNYGGAMDYWGQGTSVTVSS
VL: DIVLTQSHEFMSTSLRDRVSITCKSSQHVSTAVAWYQQKPGQSPKLLIYSASYRYTGVPDRFTGSGSGTDFTFTISSVKAEDLAVYYCQQHYITPWTFGGGTKLEIK
notes: Mouse monoclonal antibody from hybridoma; also called monoclonal antibody secreted by hybridoma LT019 (CCTCC NO: C2020208)
Take B1: the binding result in [1] is on record as “binds”.

B2: RG6058(G1DM) (antibody, human IgG1, kappa, L234A L235A, V domains shown)
VH: EVQLQQSGPGLVKPSQTLSLTCAISGDSVSSNSAAWNWIRQSPSRGLEWLGKTYYRFKWYSDYAVSVKGRITINPDTSKNQFSLQLNSVTPEDTAVFYCTRESTTYDLLAGPFDYWGQGTLVTVSS
VL: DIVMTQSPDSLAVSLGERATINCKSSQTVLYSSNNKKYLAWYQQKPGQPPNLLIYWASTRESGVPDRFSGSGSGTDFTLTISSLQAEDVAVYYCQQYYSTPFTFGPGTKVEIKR
notes: Positive control anti-TIGIT antibody (Tiragolumab variable regions, G1DM constant region)
The EC50 is the concentration at which the effect is half-maximal. For orientation: Kd means the free concentration of one partner at which half of the binding sites on the other are occupied at equilibrium, for simple one-to-one binding. Low readings indicate higher affinity, high ones lower affinity. With B2, the EC50 in assay [2] is 0.017 nM; in assay [3], 0.425 nM; in assay [5] it was 1.15 nM; in assay [6], 1.22 nM; in assay [7], 1.29 nM. Further, the Kd in assay [4] worked out at 0.847 nM.

B3: BMS 22G2 (antibody, human IgG1, kappa, V domains shown)
VH: QVQLQESGPGLVKPSETLSLTCTVSGGSVSSGIYYWSWIRQPPGKGLEWIGYIYYSGSTNYNPSLKSRVTISVDTSKNQFSLKLSSVTAADTAVYYCARDYYVSGNYYNVDYYFFGVDVWGQGTTVTVSS
VL: EIVLTQSPATLSLSPGERATLSCRASQSVSSYLAWYQQKPGQAPRLLIYDASNRATGIPARFSGSGSGTDFTLTISSLEPEDFAVYYCQQRSNWPPLFTFGPGTKVDIKR
notes: Positive control anti-TIGIT antibody
In the case of B3, the concentration giving a half-maximal response (EC50) in assay [8] came out at 0.017 nM; in assay [9] it was 0.513 nM.

B4: BMS 22G2(G1DM) (antibody, V domains shown)
VH: B3 VH
VL: EIVLTQSPATLSLSPGERATLSCRASQSVSSYLAWYQQKPGQAPRLLIYDASNRATGIPARFSGSGSGTDFTLTISSLEPEDFAVYYCQQRSNWPPLFTFGPGTKVDIK
Take B4: binding in assay [4] was characterised by a dissociation constant (Kd) of 0.628 nM. In other words, the sub-nanomolar range.
